{"source": "the DeepSol protein solubility set"}
{"assay": "soluble on expression in E. coli; label from the status in PepcDB or PDB records"}
{"sequence": "MQILKVIGLLMEYPDELLWECKEDALALIRRDAPMLTDFTHNLLNAPLLDKQAEWCEVFDRGRTTSLLLFEHVHAESRDRGQAMVDLLAEYEKVGLQLDCRELPDYLPLYLEYLSVLPDDQAKEGLLNVAPILALLGGRLKQREAPWYALFDALLQLAGSSLSSDSVTKQVNSEERDDTRQALDAVWEEEQVKFIEDNATACDSSPLNQYQRRFSQDVAPQYVDISAGGGK", "soluble on expression in E. coli": "not soluble"}
{"sequence": "MQITTVNVNGIRAAVKQRSDANRGMLPWLEQCGSDVVLLQEVRASEKDSLTALAPALDAGWHYVGAPAAAKGRAGVGILSRQPLRDVQVGLEGFVDSGRYIQATLSDPDTGHDVVVASLYLPSGSADTDKQDEKYRFLDVFGPFLEQAAQDNPHMVVGGDWNICHRMQDLKNWKTNRKKSGFLPDERAFMDSVFGVFPDSESQVSDAGQWAGAVDYTSQQRRTPANDPKWFDVARRLAPEDAAYTWWTYRGQAFDTNAGWRIDYQAATSAMLERATRCWVDKAAAYDLRWSDHSPLTVVYS", "soluble on expression in E. coli": "soluble"}
{"sequence": "MQKFILSAFVVALVAADCALKCPDGYFSFKRAPSAKNSMTGLWCVKAILSDTLISPNQAKQVCEKDGSILTSFENLDERTKLATVLRDFLSAKKLDRGGMIVDGHRLKNCETDDRTVLNAEPCRNSSTGFTTDEKHTDNTFMWKSWADTEPGQSIFEKQIESCLQLAISQFKSRTELINDVFCNYVKHPQNEGAYDLWNYGAVCGRLPEWN", "soluble on expression in E. coli": "not soluble"}
{"sequence": "MQKIKSLMTRQGLKSPQESLSDLGAIESLRVPGKEEFRELREQPSDPQAEQELINSIEQVYFSVDSFDIVKYELEKLPPVLNLQELEAYRDKLKQQQAAVSKKVADLILEKQPAYVKELERVTSLQTGLQLAAVICTNGRRHLNIAKEGFTQASLGLLANQRKRQLLIGLLKSLRTIKTLQRTDVRLSEMLEEEDYPGAIQLCLECQKAASTFKHYSCISELNSKLQDTLEQIEEQLDVALSKICKNFDINHYTKVQQAYRLLGKTQTAMDQLHMHFTQAIHNTVFQVVLGYVELCAGNTDTKFQKLQYKDLCTVCSDLITIHISLL", "soluble on expression in E. coli": "soluble"}
{"sequence": "MQKKRFSKKYEVHYYEINSMQEATLLSLLNYMEDCAISHSTSAGYGVNELLAADAGWVLYRWLIKIDRLPKLGETITVQTWASSFERFYGNREFIVLDGRDNPIVKASSVWIYFNIKKRKPMRIPLEMGDAYGIDETRALEEPFTDFDFDFEPKVIEEFTVKRSDIDTNSHVNNKKYVDWIMETVPQQIYDNYKVTSLQIIYKKESSLGSGIKAGCVIDEQNTDNPRLLHKIWDKNTGLELVSAETIWQKIQS", "soluble on expression in E. coli": "soluble"}
{"sequence": "MQKRVTDEEIKERLGKIKSRIAVMSGKGGVGKSTVTALLAVHYARQGKKVGILDADFLGPSIPILFGLRNARIAVSAEGLEPVLTQKYGIKVMSMQFLLPKENTPVIWRGPLIAGMIREFLGRVAWGELDHLLIDLPPGTGDAPLTVMQDAKPTGVVVVSTPQELTAVIVEKAINMAEETNTSVLGLVENMSYFVCPNCGHKSYIFGEGKGESLAKKYNIGFFTSIPIEEELIKLADSGRIEEYEKDWFESAPFLEHHHHHH", "soluble on expression in E. coli": "soluble"}
{"sequence": "MQKVESIIIGGGPCGLSAAIEQKRKGIDTLIIEKGNVVESIYNYPTHQTFFSSSDKLSIGDVPFIVEESKPRRNQALVYYREVVKHHQLKVNAFEEVLTVKKMNNKFTITTTKDVYECRFLTIATGYYGQHNTLEVEGADLPKVFHYFKEAHPYFDQDVVIIGGKNSAIDAALELEKAGANVTVLYRGGDYSPSIKPWILPNFTALVNHEKIDMEFNANVTQITEDTVTYEVNGESKTIHNDYVFAMIGYHPDYEFLKSVGIQINTNEFGTAPMYNKETYETNIENCYIAGVIAAGNDANTIFIENGKFHGGIIAQNMLAKKQTPLES", "soluble on expression in E. coli": "soluble"}
{"sequence": "MQLILLLVSLLMLIATFIEARDSDIDKKSLRTERLGFCPRYETWRKCGNGCEKSCTHPRQPPFSQCKLPCIPYSCRCNPGFYRDNQGTGRCVRLRRCKKW", "soluble on expression in E. coli": "not soluble"}
{"sequence": "MQLKGKTAIVTGSSRGLGKAIAWKLGNMGANIVLNGSPASTSLDATAEEFKAAGINVVVAKGDVKNPEDVENMVKTAMDAFGRIDILVNNAGITRDTLMLKMSEKDWDDVLNTNLKSAYLCTKAVSKIMLKQKSGKIINITSIAGIIGNAGQANYAASKAGLIGFTKSIAKEFAAKGIYCNAVAPGIIKTDMTDVLPDKVKEMYLNNIPLKRFGTPEEVANVVGFLASDDSNYITGQVINIDGGLVM", "soluble on expression in E. coli": "soluble"}
{"sequence": "MQLSKFFQKPQLLFRVAQPKDKENILKFLDAHFAKEEPCARALKLSPETSRGIFTTTVTRCLNFPFSTVVLQENDEIAACLLASVWNRTDPIDSADFNSSGMPENLKLFVQFINSAHSNFWKIAPPNVNSIIHREIGSVAPQFTRKGIATRMVTTNMTKTNLKKYNIGGVLSETSSLANQIVLQKAGFKCLKELPYSAIVDSKGNRVLRPDDGTTSLCLNFKPIEEYENLPE", "soluble on expression in E. coli": "not soluble"}
{"sequence": "MQLSRQDEPLYLGLAETLRDELAGYQPGDYLPAEFQLAERFSVNRHTIRRAVDELVREGSVLRRQGKGTQVLERPLIYPMQADSAYSQSLSAQGVGVEAILLLRRECQASHEDALHLGLAEHAPVIELQTLRKLDGQAVSLIFHRYSAVYHELLADYQGGSVRQYLAECGLPLSRAQSLIGARLPSREEAGLLLMPRHMPALTVLTVSCDGAGQPVELSRSVSRSDRFQYQVATAIPTR", "soluble on expression in E. coli": "not soluble"}
{"sequence": "MQLYVVLCFLVLLGLSAGQMTFTDQWTKKRATLHKQLPVVTPEEPICPSDRVQAVFEQLDQLQKAQQRLTEYLASCAYPVEVPQKAEKM", "soluble on expression in E. coli": "not soluble"}
{"sequence": "MQMKRTAFFISDGTGITAETLGQSLLAQFENISFVKLTRPYIDTEEKARAMVQQINNAAESDGARPIIFDTIVNRDIRAVLAQSNGFMIDIFATFLSPLEQELSADSSYSVGKSHSIGHNSNYMDRIEAVNFALDNDDGARTHYYDKADLILVGVSRCGKTPTCLYMALQYGIRAANYPLTEEDMERLQLPNALKQYKHKLFGLTIDPDRLTAIRNERKPNSRYASFAQCEFEVREVESLFRRENIAYINSTHFSVEEISAKILVEKGVERRFKLEHHHHHH", "soluble on expression in E. coli": "not soluble"}
{"sequence": "MQNAILLVSCPDRKGLVKEISSFIADNGGNIVSFDQHIDEQTKTFLARVEWSLEDFKIPREKIENEFKKVAQKFSMNFQISFSDYVKKVAIFVSKQEHCFYDLMHRFYSGELKGEVKLVISNHEKARKTAEFFGVPFYHIPKTKENKLEAEKRELELLKEYGVELVVLARYMQILSPKFVKEYENKIINIHHSFLPAFPGAKPYERAFGKGVKIIGATAHYVTEELDEGPIIEQDVVRVSHKDSLEDFIRKGKDIEKVVLARAVKWHLEDKILVYNGKTVVFE", "soluble on expression in E. coli": "soluble"}
{"sequence": "MQNPIDSLLYVKISAEQAGKIFENLESSIPLPIQLSEPGQKEDFKAENIKPEMILAGMLTVFAYDRENPHITYYRKIFNLLRPDIRKEMTEAAIIKIKNNDFDMAEEILLSLEGLNPDDGITKLNLALLMEERSQFCEMRELFEDALSFNKRAEELYSELILFEPPLPGVFFNAAYFFIKQKNYIKAKSLLKTYLEIENDSSETAEFRKAKASELLKTISEQALDDELFQKAYKCIDLGEEEKAAESIKLFLRKNPKVWNAWFLLGWALRRMGRWEDARSSFLKTIELLENSEISDKEPLCDVYNELAICLMELELFDEAEKHLINALSLDSENIKIISNLGTLALKQGKQEEAEAFFRTVLEINPDDKIALNVLGKPRA", "soluble on expression in E. coli": "not soluble"}
{"sequence": "MQPEEGTGWLLELLSEVQLQQYFLRLRDDLNVTRLSHFEYVKNEDLEKIGMGRPGQRRLWEAVKRRKALCKRKSWMSKVFSGKRLEAEFPPHHSQSTFRKTSPAPGGPAGEGPLQSLTCLIGEKDLRLLEKLGDGSFGVVRRGEWDAPSGKTVSVAVKCLKPDVLSQPEAMDDFIREVNAMHSLDHRNLIRLYGVVLTPPMKMVTELAPLGSLLDRLRKHQGHFLLGTLSRYAVQVAEGMGYLESKRFIHRDLAARNLLLATRDLVKIGDFGLMRALPQNDDHYVMQEHRKVPFAWCAPESLKTRTFSHASDTWMFGVTLWEMFTYGQEPWIGLNGSQILHKIDKEGERLPRPEDCPQDIYNVMVQCWAHKPEDRPTFVALRDFLLEAQPTDMRALQDFEEPDKLHIQMNDVITVIEGRAENYWWRGQNTRTLCVGPFPRNVVTSVAGLSAQDISQPLQNSFIHTGHGDSDPRHCWGFPDRIDELYLGNPMDPPDLLSVELSTSRPPQHLGGVKKPTYDPVSEDQDPLSSDFKRLGLRKPGLPRGLWLAKPSARVPGTKASRGSGAEVTLIDFGEEPVVPALRPCPPSLAQLAMDACSLLDETPPQSPTRALPRPLHPTPVVDWDARPLPPPPAYDDVAQDEDDFEICSINSTLVGAGVPAGPSQGQTNYAFVPEQARPPPPLEDNLFLPPQGGGKPPSSAQTAEIFQALQQECMRQLQAPGSPAPSPSPGGDDKPQVPPRVPIPPRPTRPHVQLSPAPPGEEETSQWPGPASPPRVPPREPLSPQGSRTPSPLVPPGSSPLPPRLSSSPGKTMPTTQSFASDPKYATPQVIQAPGAGGPCILPIVRDGKKVSSTHYYLLPERPSYLERYQRFLREAQSPEEPTPLPVPLLLPPPSTPAPAAPTATVRPMPQAALDPKANFSTNNSNPGARPPPPRATARLPQRGCPGDGPEAGRPADKIQMAMVHGVTTEECQAALQCHGWSVQRAAQYLKVEQLFGLGLRPRGECHKVLEMFDWNLEQAGCHLLGSWGPAHHKR", "soluble on expression in E. coli": "not soluble"}
{"sequence": "MQPIPDVNQRIARISAHLHPPKSQMEESSALRRANCRAKGGAPGFKVAILGAAGGIGQPLAMLMKMNPLVSVLHLYDVVNAPGVTADISHMDTGAVVRGFLGQQQLEAALTGMDLIIVPAGVPRKPGMTRDDLFKINAGIVKTLCEGIAKCCPRAIVNLISNPVNSTVPIAAEVFKKAGTYDPKRLLGVTMLDVVRANTFVAEVLGLDPRDVDVPVVGGHAGVTILPLLSQVKPPSSFTQEEISYLTDRIQNGGTEVVEAKAGAGSATLSMAYAAVKFADACLRGLRGDAGVIECAFVSSQVTELPFFASKVRLGRNGIEEVYSLGPLNEYERIGLEKAKKELAGSIEKGVSFIRSHHHHHH", "soluble on expression in E. coli": "soluble"}
{"sequence": "MQPLLEAQKKLLPDLLDVMQKRYQILHSISLMAPIGRRALAASLGMSERVLRSETEFLKGQNLLSADVSGMRLTEEGQALLHTLNDLMREALGLKELEAALQEQLGIPRVIVVAGDSDRSPWVKKEMGRACVACMKELLEPGDIVAVAGGTTMAAVAEMMTPDSKLRDVLFVPARGGLGEDVENQANTICAKMAEKAMGRYRLLHVPDQLSDEAYASLVEEPAVKEVLELIQSCRMVVHGIGEAVTMAKRRKTPPVEMEKIIARHAVAEAFGYYFNEYGDVVHKVKTVGIQLEHLPHVEHVIAVAGGASKAKAIRAYMKRAPHSLLVTDEGAAKAFVGE", "soluble on expression in E. coli": "not soluble"}
{"sequence": "MQQNIQYTYSSDPRSGGNQNQQLHGISQFQQNSYQPTTYSNSNANNFHSSNSATFIPNSVTQTPQRRMGEEKSLVNMLDAYFIDSTTPSTSTSWNNQQPVQMSSIQQSVGSYNQQIPQLKVGDVDLQVEGMNVKLSSSPDKGEKDRVKKARQAEAARMRYHRLSNEEKRELNLKRTLAQKRKRQREKEMEELESILRETNDIQEDPDITEQLREKRMRAKWAEAARTRYARMTPEERRAHNTRRRMRQMQNAMSAIKACGMATGDPQKDDEAVRLHIKTQNAKKAEAARQRYHRMNDDEKRVYNQRRTEAFRRRRMEEEMLLAMPIGRINGEALDRAQQIVVRNAKRAEAARLRYQRMTPDQRKSYNQKRYTPKRRRNEMDDMISAGQMAVGSSGTITMGTGTPAKKDDMDALSSLERDVVKRTQHAQQILLRQRANQSSGTPRSVTPPPQAYIISNGQQQHQQLVGNQGNNGIGQHQVLHQGHMQQQQIQVSHQDFQQSSQSIPQNIYTSGMIIQNQGQQQQGQQQQQGQSQQILNNPYRT", "soluble on expression in E. coli": "not soluble"}
